According to patent US20140087995A1 (published 2014):
Residue numbers refer to the chain shown, from its start. Numbered stars: 1 amine (or outer) side, 2 acyl side, 3 side chain; on linkers, the order of the positions; unused ones are H or OH. Bridge positions count the residues as written; N and C are the ends. * marks the point of attachment. C20 diacid = O=C(O)CCCCCCCCCCCCCCCCCCC(=O)*; γGlu = O=C(O)[C@H](CCC(=O)[*:2])N[*:1]; AEEA = NCCOCCOCC(=O)O

T1: human amylin receptor (amylin 3(a) receptor: human calcitonin receptor plus RAMP-3) (human, UniProt P30988 25-474; O60896 24-148, limits assumed)
T1 sequence (looked up) 1: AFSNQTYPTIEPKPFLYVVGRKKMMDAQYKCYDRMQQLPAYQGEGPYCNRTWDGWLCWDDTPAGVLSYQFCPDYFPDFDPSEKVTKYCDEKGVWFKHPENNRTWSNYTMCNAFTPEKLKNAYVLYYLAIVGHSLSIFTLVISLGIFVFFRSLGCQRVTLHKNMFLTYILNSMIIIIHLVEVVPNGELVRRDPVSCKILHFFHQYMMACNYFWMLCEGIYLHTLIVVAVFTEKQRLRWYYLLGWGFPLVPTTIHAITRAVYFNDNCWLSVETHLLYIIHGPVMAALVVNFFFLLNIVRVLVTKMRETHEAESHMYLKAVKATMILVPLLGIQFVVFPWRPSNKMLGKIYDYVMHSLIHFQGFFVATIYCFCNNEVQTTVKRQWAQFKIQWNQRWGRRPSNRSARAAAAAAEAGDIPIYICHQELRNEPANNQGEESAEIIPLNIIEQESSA
T1 sequence (looked up) 2: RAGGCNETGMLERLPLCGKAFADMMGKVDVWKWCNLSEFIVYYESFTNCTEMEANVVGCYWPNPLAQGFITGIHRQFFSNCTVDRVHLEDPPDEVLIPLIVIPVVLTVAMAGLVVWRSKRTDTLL

T2: human calcitonin receptor (human, UniProt P30988 25-474)
T2 sequence (looked up): T1 sequence (looked up) 1

B1: N^α1-[(4S)-4-carboxy-4-(19-carboxynonadecanoylamino)butanoyl]-[Glu14,Arg17,Pro21,Pro27]-h-amylin (peptide)
peptide: KCNTATCATQRLAEFLRHSSPNFGAIPSSTNVGSNTY
modifications: C20 diacid-gGlu on the alpha amino group of the N-terminal residue; Cys2-Cys7 disulfide and C-terminal amide as in human amylin
notes: also called compound 9
B2: N^α1-[(4S)-4-carboxy-4-(19-carboxynonadecanoylamino)butanoyl]-[Asp14,Arg17,Pro21,Pro27,Pro37]-h-amylin (peptide)
peptide: {C20 diacid-γGlu}-KCNTATCATQRLADFLRHSSPNFGAIPSSTNVGSNTP-NH2
modifications: disulfide 2-7
SMILES: CC[C@H](C)[C@H](NC(=O)[C@H](C)NC(=O)CNC(=O)[C@H](Cc1ccccc1)NC(=O)[C@H](CC(N)=O)NC(=O)[C@@H]1CCCN1C(=O)[C@H](CO)NC(=O)[C@H](CO)NC(=O)[C@H](Cc1c[nH]cn1)NC(=O)[C@H](CCCNC(=N)N)NC(=O)[C@H](CC(C)C)NC(=O)[C@H](Cc1ccccc1)NC(=O)[C@H](CC(=O)O)NC(=O)[C@H](C)NC(=O)[C@H](CC(C)C)NC(=O)[C@H](CCCNC(=N)N)NC(=O)[C@H](CCC(N)=O)NC(=O)[C@@H](NC(=O)[C@H](C)NC(=O)[C@@H]1CSSC[C@H](NC(=O)[C@H](CCCCN)NC(=O)CC[C@H](NC(=O)CCCCCCCCCCCCCCCCCCC(=O)O)C(=O)O)C(=O)N[C@@H](CC(N)=O)C(=O)N[C@@H]([C@@H](C)O)C(=O)N[C@@H](C)C(=O)N[C@@H]([C@@H](C)O)C(=O)N1)[C@@H](C)O)C(=O)N1CCC[C@H]1C(=O)N[C@@H](CO)C(=O)N[C@@H](CO)C(=O)N[C@H](C(=O)N[C@@H](CC(N)=O)C(=O)N[C@H](C(=O)NCC(=O)N[C@@H](CO)C(=O)N[C@@H](CC(N)=O)C(=O)N[C@H](C(=O)N1CCC[C@H]1C(N)=O)[C@@H](C)O)C(C)C)[C@@H](C)O
notes: also called compound 10
B3: N^α1-[(4S)-4-carboxy-4-(19-carboxynonadecanoylamino)butanoyl]-[Glu14,Arg17,Pro21,Pro27,Asp35,Pro37]-h-amylin (peptide)
peptide: {C20 diacid-γGlu}-KCNTATCATQRLAEFLRHSSPNFGAIPSSTNVGSDTP-NH2
modifications: disulfide 2-7
SMILES: CC[C@H](C)[C@H](NC(=O)[C@H](C)NC(=O)CNC(=O)[C@H](Cc1ccccc1)NC(=O)[C@H](CC(N)=O)NC(=O)[C@@H]1CCCN1C(=O)[C@H](CO)NC(=O)[C@H](CO)NC(=O)[C@H](Cc1c[nH]cn1)NC(=O)[C@H](CCCNC(=N)N)NC(=O)[C@H](CC(C)C)NC(=O)[C@H](Cc1ccccc1)NC(=O)[C@H](CCC(=O)O)NC(=O)[C@H](C)NC(=O)[C@H](CC(C)C)NC(=O)[C@H](CCCNC(=N)N)NC(=O)[C@H](CCC(N)=O)NC(=O)[C@@H](NC(=O)[C@H](C)NC(=O)[C@@H]1CSSC[C@H](NC(=O)[C@H](CCCCN)NC(=O)CC[C@H](NC(=O)CCCCCCCCCCCCCCCCCCC(=O)O)C(=O)O)C(=O)N[C@@H](CC(N)=O)C(=O)N[C@@H]([C@@H](C)O)C(=O)N[C@@H](C)C(=O)N[C@@H]([C@@H](C)O)C(=O)N1)[C@@H](C)O)C(=O)N1CCC[C@H]1C(=O)N[C@@H](CO)C(=O)N[C@@H](CO)C(=O)N[C@H](C(=O)N[C@@H](CC(N)=O)C(=O)N[C@H](C(=O)NCC(=O)N[C@@H](CO)C(=O)N[C@@H](CC(=O)O)C(=O)N[C@H](C(=O)N1CCC[C@H]1C(N)=O)[C@@H](C)O)C(C)C)[C@@H](C)O
notes: also called compound 11
B4: N^α1-[2-[2-[2-[[2-[2-[2-[[(4S)-4-carboxy-4-(19-carboxynonadecanoylamino)butanoyl]amino]ethoxy]ethoxy]acetyl]amino]ethoxy]ethoxy]acetyl]-[Arg17,Pro21,Pro27]-h-am … (peptide)
peptide: B1 peptide with E14N
modifications: C20 diacid-gGlu-2xOEG on the alpha amino group of the N-terminal residue; Cys2-Cys7 disulfide and C-terminal amide as in human amylin
notes: also called compound 24
B5: N^α1-[(4S)-4-carboxy-4-(19-carboxynonadecanoylamino)butanoyl]-[Arg17,Pro21,Pro27,Lys35]-h-amylin (peptide)
peptide: B1 peptide with E14N, N35K
modifications: C20 diacid-gGlu on the alpha amino group of the N-terminal residue; Cys2-Cys7 disulfide and C-terminal amide as in human amylin
notes: also called compound 34
B6: N^α1-[(4S)-4-carboxy-4-(19-carboxynonadecanoylamino)butanoyl]-[Arg17,Pro21,Pro27,Pro34,Glu35]-h-amylin (peptide)
peptide: {C20 diacid-γGlu}-KCNTATCATQRLANFLRHSSPNFGAIPSSTNVGPETY-NH2
modifications: disulfide 2-7
SMILES: CC[C@H](C)[C@H](NC(=O)[C@H](C)NC(=O)CNC(=O)[C@H](Cc1ccccc1)NC(=O)[C@H](CC(N)=O)NC(=O)[C@@H]1CCCN1C(=O)[C@H](CO)NC(=O)[C@H](CO)NC(=O)[C@H](Cc1c[nH]cn1)NC(=O)[C@H](CCCNC(=N)N)NC(=O)[C@H](CC(C)C)NC(=O)[C@H](Cc1ccccc1)NC(=O)[C@H](CC(N)=O)NC(=O)[C@H](C)NC(=O)[C@H](CC(C)C)NC(=O)[C@H](CCCNC(=N)N)NC(=O)[C@H](CCC(N)=O)NC(=O)[C@@H](NC(=O)[C@H](C)NC(=O)[C@@H]1CSSC[C@H](NC(=O)[C@H](CCCCN)NC(=O)CC[C@H](NC(=O)CCCCCCCCCCCCCCCCCCC(=O)O)C(=O)O)C(=O)N[C@@H](CC(N)=O)C(=O)N[C@@H]([C@@H](C)O)C(=O)N[C@@H](C)C(=O)N[C@@H]([C@@H](C)O)C(=O)N1)[C@@H](C)O)C(=O)N1CCC[C@H]1C(=O)N[C@@H](CO)C(=O)N[C@@H](CO)C(=O)N[C@H](C(=O)N[C@@H](CC(N)=O)C(=O)N[C@H](C(=O)NCC(=O)N1CCC[C@H]1C(=O)N[C@@H](CCC(=O)O)C(=O)N[C@H](C(=O)N[C@@H](Cc1ccc(O)cc1)C(N)=O)[C@@H](C)O)C(C)C)[C@@H](C)O
notes: also called compound 29
B7: N^α1-[2-[2-[2-[[2-[2-[2-[[(4S)-4-carboxy-4-(19-carboxynonadecanoylamino)butanoyl]amino]ethoxy]ethoxy]acetyl]amino]ethoxy]ethoxy]acetyl]-[Glu14,Arg17,Pro21,Pro27 … (peptide)
peptide: {C20 diacid-γGlu-AEEA-AEEA}-KCNTATCATQRLAEFLRHSSPNFGAIPSSTNVGSNTP-NH2
modifications: disulfide 2-7
SMILES: CC[C@H](C)[C@H](NC(=O)[C@H](C)NC(=O)CNC(=O)[C@H](Cc1ccccc1)NC(=O)[C@H](CC(N)=O)NC(=O)[C@@H]1CCCN1C(=O)[C@H](CO)NC(=O)[C@H](CO)NC(=O)[C@H](Cc1c[nH]cn1)NC(=O)[C@H](CCCNC(=N)N)NC(=O)[C@H](CC(C)C)NC(=O)[C@H](Cc1ccccc1)NC(=O)[C@H](CCC(=O)O)NC(=O)[C@H](C)NC(=O)[C@H](CC(C)C)NC(=O)[C@H](CCCNC(=N)N)NC(=O)[C@H](CCC(N)=O)NC(=O)[C@@H](NC(=O)[C@H](C)NC(=O)[C@@H]1CSSC[C@H](NC(=O)[C@H](CCCCN)NC(=O)COCCOCCNC(=O)COCCOCCNC(=O)CC[C@H](NC(=O)CCCCCCCCCCCCCCCCCCC(=O)O)C(=O)O)C(=O)N[C@@H](CC(N)=O)C(=O)N[C@@H]([C@@H](C)O)C(=O)N[C@@H](C)C(=O)N[C@@H]([C@@H](C)O)C(=O)N1)[C@@H](C)O)C(=O)N1CCC[C@H]1C(=O)N[C@@H](CO)C(=O)N[C@@H](CO)C(=O)N[C@H](C(=O)N[C@@H](CC(N)=O)C(=O)N[C@H](C(=O)NCC(=O)N[C@@H](CO)C(=O)N[C@@H](CC(N)=O)C(=O)N[C@H](C(=O)N1CCC[C@H]1C(N)=O)[C@@H](C)O)C(C)C)[C@@H](C)O
notes: also called compound 20

The binders below were run against T1, human amylin receptor (amylin 3(a) …) (assay: cell-based or functional assay).

Row | Binder | hAmylin-R funct. EC50 [nM]
1 | B1 | 0.175
2 | B2 | 0.072
3 | B3 | 0.12
4 | B4 | 0.433
5 | B5 | 0.313
6 | B6 | 0.099
7 | B7 | 0.08

These binders were tested against T2, human calcitonin receptor (assay: cell-based or functional assay).

Row | Binder | Ratio hCT/hAmylin funct. (hCTR EC50 against hAmylin-R EC50) | hCTR funct. EC50 [nM]
8 | B1 | 7.4 | 1.29
9 | B2 | 1 | 0.07
10 | B3 | 0.9 | 0.112
11 | B4 | 23.1 | 10
12 | B5 | 8.4 | 2.62
13 | B6 | 8.7 | 0.857
14 | B7 | 3.6 | 0.285

The binders below were run against T1, human amylin receptor (amylin 3(a) …) (assay: SPA competition binding, membranes of Amylin 3(a)/CRE-luc BHK cells, displacement of 125I-rat amylin (Assay V)).
Experimental: The binding assay was performed using scintillation proximity assay (SPA) beads (RPNQ0001) from PerkinElmer and cell membranes from the Amylin 3(a)/CRE-luc cells (as described in Assay (II)) were used. Membranes were prepared in the following way; the cells were rinsed with PBS and incubated with Versene for approximately 5 min before harvesting. The cells were flushed with PBS and the cell-suspension was centrifuged for 5 min at 1000 rpm. Cells were homogenized (ultrathurrax) in a buffer containing 20 mM Na-HEPES and 10 mM EDTA (pH 7.4) and centrifuged at 20.000 rpm for 15 min. The resulting pellet was resuspended, homogenized and centrifuged (20.000 rpm, 15 min) in a buffer containing 20 mM Na-HEPES and 0.1 mM EDTA (pH 7.4, buffer 2). The resulting pellet was resuspended in buffer 2 and protein concentration was measured (BCA protein Assay, Pierce). The homogenate was kept cold during the whole procedure. The membranes were kept at −80° C. until use. The assay was performed in a 384 well Optiplate (PerkinElmer) in a total volume of 40 ul. Membranes were mixed with SPA beads. Final concentration of membranes 35 ng/μL final and SPA beads was 0.05 mg/well. Test-compounds were dissolved in DMSO and further diluted in assay buffer (50 mM Hepes, pH 7.4, 1 mM CaCl2, 5 mM MgCl₂, 0.1% OA and 0.02% Tween20). […] The final mixture was incubated with shaking at 400 rpm for 120 min at 25° C. prior to centrifugation (1500 rpm, 10 min). Samples were analyzed on TopCounter™ (Packard). The IC₅₀ was calculated using (one site binding competition analysis) GraphPad Prism5 as a measure of receptor affinity.

Row | Binder | IC50 [nM]
15 | B1 | 0.143
16 | B2 | 0.082
17 | B3 | 0.105
18 | B4 | 1.14
19 | B5 | 1.14
20 | B6 | 0.577
21 | B7 | 0.217
